From publication PMC8671107 (Frontiers in Molecular Biosciences, 2021)
No end group written: not given here.

Columns and labels:
[1] = biological target: neuronal human α7 nicotinic acetylcholine receptor expressed in GH4C1 cells (human) (UniProt P36544); test: radioligand binding
[2] = biological target: muscle-type nicotinic acetylcholine receptor from Torpedo californica electric organ (Torpedo californica (endogenous in electric organ)); test: radioligand binding
[3] = biological target: T1, acetylcholine binding protein from Lymnaea stagnalis (Lymnaea stagnalis, UniProt P58154 20-229); test: radioligand binding; conditions: both partners purified
T1 construct: also called AChBP; L. stagnalis AChBP
T1 sequence (P58154 20-229): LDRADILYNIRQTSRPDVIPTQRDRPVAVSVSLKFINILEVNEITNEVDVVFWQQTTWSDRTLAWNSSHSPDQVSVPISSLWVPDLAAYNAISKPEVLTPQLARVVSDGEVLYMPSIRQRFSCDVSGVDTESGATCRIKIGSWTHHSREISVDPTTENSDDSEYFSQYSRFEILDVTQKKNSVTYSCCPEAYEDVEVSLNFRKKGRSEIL

[4] = biological target: T1, acetylcholine binding protein from …; test: MST; conditions: both partners purified
[5] = biological target: T1, acetylcholine binding protein from …; test: other fluorescence titration; conditions: both partners purified
[6] = biological target: T1, acetylcholine binding protein from …; test: radioligand binding; conditions: both partners purified; remark: listed apart in the source

Chain of muscle-type nicotinic acetylcholine receptor from Torpedo californica electric organ (Torpedo californica (endogenous in electric organ)) (P02710 25-461 limits assumed, chain 1 of 4): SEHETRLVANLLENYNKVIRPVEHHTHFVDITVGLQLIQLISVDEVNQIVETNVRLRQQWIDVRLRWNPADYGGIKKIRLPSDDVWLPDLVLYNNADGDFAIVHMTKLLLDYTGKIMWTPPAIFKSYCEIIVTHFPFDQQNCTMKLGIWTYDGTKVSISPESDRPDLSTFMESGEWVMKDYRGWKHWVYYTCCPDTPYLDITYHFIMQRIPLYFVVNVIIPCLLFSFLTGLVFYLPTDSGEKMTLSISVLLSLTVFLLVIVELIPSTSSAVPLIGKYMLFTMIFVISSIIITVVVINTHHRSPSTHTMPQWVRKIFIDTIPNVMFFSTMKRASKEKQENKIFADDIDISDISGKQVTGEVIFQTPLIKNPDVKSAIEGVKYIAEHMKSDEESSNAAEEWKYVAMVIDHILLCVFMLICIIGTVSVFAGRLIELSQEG
Chain of muscle-type nicotinic acetylcholine receptor from Torpedo californica electric organ (Torpedo californica (endogenous in electric organ)) (P02712 25-493 limits assumed, chain 2 of 4, further chain): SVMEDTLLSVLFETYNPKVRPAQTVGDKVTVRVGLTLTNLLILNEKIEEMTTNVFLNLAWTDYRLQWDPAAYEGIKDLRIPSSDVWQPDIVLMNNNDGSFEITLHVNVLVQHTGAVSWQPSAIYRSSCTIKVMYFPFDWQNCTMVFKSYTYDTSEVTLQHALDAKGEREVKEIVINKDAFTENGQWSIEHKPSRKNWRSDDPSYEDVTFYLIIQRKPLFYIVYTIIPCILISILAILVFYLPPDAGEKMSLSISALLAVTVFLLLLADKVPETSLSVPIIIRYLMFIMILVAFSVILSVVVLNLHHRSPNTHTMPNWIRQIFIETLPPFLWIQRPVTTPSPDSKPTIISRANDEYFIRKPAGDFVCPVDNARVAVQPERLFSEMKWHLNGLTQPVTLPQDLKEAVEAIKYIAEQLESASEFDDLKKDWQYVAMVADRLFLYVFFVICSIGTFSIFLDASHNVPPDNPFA
Chain of muscle-type nicotinic acetylcholine receptor from Torpedo californica electric organ (Torpedo californica (endogenous in electric organ)) (P02714 18-506 limits assumed, chain 3 of 4, further chain): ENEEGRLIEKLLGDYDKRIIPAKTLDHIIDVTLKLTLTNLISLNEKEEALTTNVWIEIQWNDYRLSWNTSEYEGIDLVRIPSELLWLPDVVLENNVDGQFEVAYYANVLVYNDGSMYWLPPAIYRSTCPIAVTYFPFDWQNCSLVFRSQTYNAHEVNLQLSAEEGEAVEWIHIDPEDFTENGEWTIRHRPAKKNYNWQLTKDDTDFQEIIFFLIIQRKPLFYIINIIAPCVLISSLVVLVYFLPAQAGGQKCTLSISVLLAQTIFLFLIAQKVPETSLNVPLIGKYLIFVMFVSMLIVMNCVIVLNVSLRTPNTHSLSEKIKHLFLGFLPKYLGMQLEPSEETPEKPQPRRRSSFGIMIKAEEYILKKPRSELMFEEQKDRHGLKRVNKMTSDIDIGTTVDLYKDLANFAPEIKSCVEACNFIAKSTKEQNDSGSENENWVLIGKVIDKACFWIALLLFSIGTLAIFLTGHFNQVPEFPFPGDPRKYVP
Chain of muscle-type nicotinic acetylcholine receptor from Torpedo californica electric organ (Torpedo californica (endogenous in electric organ)) (P02718 22-522 limits assumed, chain 4 of 4, further chain): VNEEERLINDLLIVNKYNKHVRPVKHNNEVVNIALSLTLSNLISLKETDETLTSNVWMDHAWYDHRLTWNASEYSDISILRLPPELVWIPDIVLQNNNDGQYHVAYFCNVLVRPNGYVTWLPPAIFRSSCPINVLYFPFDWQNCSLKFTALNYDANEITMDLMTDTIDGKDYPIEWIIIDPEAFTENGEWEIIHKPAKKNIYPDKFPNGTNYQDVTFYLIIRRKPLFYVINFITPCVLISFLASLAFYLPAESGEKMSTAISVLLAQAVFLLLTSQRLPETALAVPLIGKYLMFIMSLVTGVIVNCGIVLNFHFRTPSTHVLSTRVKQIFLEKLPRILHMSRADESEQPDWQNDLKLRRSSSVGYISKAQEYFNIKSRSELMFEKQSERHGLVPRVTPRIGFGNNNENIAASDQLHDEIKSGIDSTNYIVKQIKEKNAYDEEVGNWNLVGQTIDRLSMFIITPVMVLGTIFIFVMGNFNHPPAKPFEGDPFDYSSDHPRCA
Chain of neuronal human α7 nicotinic acetylcholine receptor expressed in GH4C1 cells (human) (P36544 23-502): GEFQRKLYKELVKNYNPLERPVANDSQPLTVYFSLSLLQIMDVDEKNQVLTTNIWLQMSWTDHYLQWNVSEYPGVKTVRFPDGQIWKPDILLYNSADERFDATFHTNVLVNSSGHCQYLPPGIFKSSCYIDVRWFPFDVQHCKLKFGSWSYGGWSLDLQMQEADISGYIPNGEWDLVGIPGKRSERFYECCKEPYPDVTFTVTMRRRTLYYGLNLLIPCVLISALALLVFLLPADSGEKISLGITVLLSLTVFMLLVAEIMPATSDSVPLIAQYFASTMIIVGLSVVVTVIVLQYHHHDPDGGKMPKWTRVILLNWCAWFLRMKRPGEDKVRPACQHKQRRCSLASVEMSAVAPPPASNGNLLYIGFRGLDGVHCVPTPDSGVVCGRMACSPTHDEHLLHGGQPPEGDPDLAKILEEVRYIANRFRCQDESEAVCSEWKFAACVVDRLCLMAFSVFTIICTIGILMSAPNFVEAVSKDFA

HOBDI-BF2–α-CbTx (from UniProt P01391 1-71) (natural protein)
IC50 [1]: 27 nM | IC50 [2]: 3.88 nM

α-cobratoxin (from UniProt P01391 1-71) (natural protein)
IC50 [1]: 5.4 nM | IC50 [2]: 0.57 nM

HOBDI-BF2–Aze (fraction 4, label at Lys6) (peptide)
IC50 [2]: 172 nM

B1: α-cobratoxin (natural protein)
chain: IRCFITPDITSKDCPNGHVCYTKTWCDAFCSIRGKRVDLGCAATCPTVKTGVDIQCCSTDNCNPFPTRKRP
IC50 [3]: 28 nM

B2: HOBDI-BF2–α-CbTx (natural protein)
chain: IRCFITPDITSKDCPNGHVCYTKTWCDAFCSIRGKRVDLGCAATCPTVKTGVDIQCCSTDNCNPFPTRKRP
IC50 [3]: 67 nM | Kd [4]: 194 ± 89 nM | Kd [5]: ~200 nM

DNWWPKPPHQGPRPPRPRPKP-NH2 (also: one p-HOBDI-BF2 label, position not given here) [Fraction 5 of p-HOBDI-BF2-modified azemiopsin (mono-modified product)]
IC50 [2]: 128 nM

DNWWPKPPHQGPRPPRPRPKP-NH2 (also: one p-HOBDI-BF2 label, position not given here)
IC50 [2]: 210 nM

DNWWPKPPHQGPRPPRPRPKP-NH2 [azemiopsin]
IC50 [2]: 7.3 nM

B3: ^125I-α-bungarotoxin (natural protein)
chain: IVCHTTATSPISAVTCPPGENLCYRKMWCDAFCSSRGKVVELGCAATCPSKKPYEEVTCCSTDKCNPHPKQRPG
binding result [6]: binds
